According to the nanobody polyreactivity screen of Harvey et al. (2022):

Experiment: yeast display, Sf9 membrane polyspecificity reagent, FACS + sequencing; frameworks hold sequencing errors
In short: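 Galactose induction of a Saccharomyces cerevisiae BJ5465 synthetic nanobody display library ran 36–48 hours. The cells were then stained for 1 hour at 4 °C with 10% biotinylated, detergent-solubilized Sf9 membrane reagent, pulled down on streptavidin microbeads and FACS-sorted into low and high (top ~1%) gates on expression and reagent-binding fluorescence. Labels for polyreactivity follow the gate of origin.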

Sequence	polyreactivity (PSR sort gate)
QVQLVESGGGLVQAGGSLRLSCAASGSIFAGNVMGWYRQAPGKESELVAAISRRGGRTYYADSVKGRFTISRDNAKNTVYLQMNSLKPEDTAVYYCAARRDPVLGKSDYWGQGTQVTVSS	high polyreactivity
QVQLVESGAGLVQAGGSLRLSCAASGLTFRSYAMGWYRQAPGKERELVAAITRSGGSTYYADSVKGRFTISRDNAKNTVYLQMNSLKPEDTAVYYCAARYKGNPDRYGYWGQGTQVTVSS	high polyreactivity
QVQLVESGGGLVQAGGSLRLSCAASGFTFQVYAMGWYRQAPGKERELVADITESGDSTYYADSVKGRFTISRDNAKNTVYLQMNSLKPEDTAVYYCAADGGWFWSLFYTFAFDYWGQGTQVTVSS	low polyreactivity
QVQLVESGGGLVQAGGSLRLSCAASGFTFRFYAMGWYRQAPGKERELVAAISRRGGTTYYADSVKGRFTISRDNAKNTVYLQMNSLKPEDTAVYYCNKDWTYEHGYWGQGTQVTVSS	high polyreactivity
QVQLVESGGGLVQAGGSLSLSCAASGFIFRGYAMGWNRQAPGKEREFVAAISRRGGSTYYADSVKGRFTISRDNAKNTVYLQMNSLKPEDTAVYYCAARYSPVWHKYYYWGQGTEVTVSS	high polyreactivity
QVQLVESGGGLVQAGVSLRLSCAASGRTFPRYAMGWYRQAPGKERELVASISYSGGSTYYADSVKVRFTISRDTAKNTVYLQLNSLKPEDTAVYYCARRGRTSFKYYYWGQGTQVTVSS	high polyreactivity
QVQLVESGGGLVQAGGSLRLSCAASGLTIYYYAMGWYIQAPGKEREFVAAISWHGGSTYYADSVKGRFTISRDNAKNTVYLQMNSLKPEDTAVYYCAADIYLRGFHYDYWGLGTQVTVSS	low polyreactivity
QVQLEESGGGLVQAGGSLRLSCASSGRIFQVNTMGWYRQAPGKESELVAAISASVGSTYYADSVKGRFTISRDNAKNTVYLQMNILKPEDTAVYYCAKSLGYSVVRTLSPTGFYYWGQGTQVTVSS	low polyreactivity
QVQIVESGGGLVQAGGSLRLSCAASGSTFTLNAMGWYRQAPGKERELVADISWSSGRTYYADSVKGRFTISRDNAKNTVYLQMNSLKPEDTAVYYCAARLPFEHVDYWGQGTQVTVSS	low polyreactivity
QVQLVESGGGLVQAGGSLRLSCAASGLIFNLYAIGWNRQAPGKEREFVATITGIGGSTYYADSVKGRFTISRDNAMNTVYFQMNSLKPEDTAVYYCAADAWFLPYNYWGQGTQVTVSS	low polyreactivity
QVQLVESGGGLVQAGGSLRFSCAASGNTFYQYAMGWYRQAPGKERELVAAIVWSGGTTYYADSVKGRFTISRDNAKNTVYLQMTSLKPEDTAVYYCNADYDRGPYDYDSWGQGTQVTVSS	low polyreactivity
QVQLVESGGGLVQAGGSLRLSCAASGFTFNNYAMGWYRQAPGKERELVAAISSGAGTYYADSVKGRFTISRDNAKNTVYLQMNSLKPEDTAVYYCNASLKYQGRTRITYRDDYWGQGTQVTVSS	low polyreactivity
QVQIVESCGALVQAGRSLSLSCAASGSTFWDNVMGSYRQAPGKERELVAASTSGGSTNYADSVKGRFTISRDNAMNTDYLQLNSLIPEDTAVYYCAAGWYLYVLPYRYYYWRQGTQVTVSS	low polyreactivity
QVQLEESGGGLVQAGGSLRLICAASGRIFDYYTMGWYRQAPGKERELVAAISSSGGSTYYADSVKGRFTISRDNAKNTVYLQMNSLKPEDPAVYYCNASVINEMNYWGQGTQVTVSS	low polyreactivity
QVQLVESGGGLVQAGGSLRLSCAASGFTFKYYVMGWYRQAPGKERELVASISKRGGSTRYADSVKGRFTISLDNAKNTVYLQMNSLKPEDTAVYYCAAEYWYYWEYEYWGQGTQVTVSS	high polyreactivity
QVQLVESGGGLVQAGGSLRLSCAASGRIFGWYAMGWYRQAPGKERELVAAITSGSRTSYADSVKGRFTISRDNAKNTVYLQMNSLKPVDTAVYYCNRVSHLDYYWGQGTQVTVSS	high polyreactivity
QVQLVESGGGLVQAGGSLRLSCAASGIIFRYYDMGWYRQAPGKERELVARITSRGGTYYADSVKGRFTISRDNATNTVYLKMNSLKPEDTAVYYCAASYLLTHGYAYNYWGQGTQVTVSS	high polyreactivity
QVQLVESGGGLVQAGGSLRLSCAASGFTFYIYAMGWYRQAPGKERELVARISSGGRTYYADSVKGRFTISRDNAKNTVYLQMNRLKPEDTAVYDCHFWYGSWGQGTQVTVSS	low polyreactivity
QVQLVESGGCLVQAGGSLRLICAASGFIFTPYAMGWYRQAPGKERELVAAIRNSDGSTYYADSVKRRFTISRDTAKHSVYLQMNSLKPEDTAVFYCAKRYRGEPGGTYGYWGQGTQVNVSS	high polyreactivity
QLQLVESGGGLVQAGGSLRLSCAASGFTFWGYTIGWYRPAPGKERQLVAGITLSGGSTYYADSVKGRFTISRDNAKNTVYLQMNSLKPEDTAVYYCAAKPYQVSSYDFSLRDYWGQGTQVTVSS	low polyreactivity
QVQLVESGGGLDQAGGSLRLSCAASGRIFTTYAMGWYRQAPGKERELVAAISRSGGSTYYADSVKGRFTISRDNAKNTVYLQMNSLKPEDTAVYYCAAVPTSNSFRSSFYYWGQGTQVTVSS	high polyreactivity
QVQLVESGGGLVQAGGSLRLSCAASGSIISANAMGWYRQAPGKESELVAAITSGDSTKYADSVKGRFTISRDNAKNTVYLQMNSLKPEDTAVYYCAVDRGVYKNRDGEEYWGQGTQVTVSS	low polyreactivity

Sequence	polyreactivity (PSR sort gate)
QVQLVESGGGLVQAGGSLRLSCAASGSTFYWYAMGWYRHAPGKEREFVADIDWSGGSTYYADSVKGRFTISLDNAKNTVYLQMNSLKPEDTAVYYCAAVGAAGQDNYWGQGTQVTVSS	high polyreactivity
QVQLVESGGGLVQAGGSLRLSCAASGSIFTGYAMGWYRQAPGKERELVAGISWGGTSTYYADSVKGRFTISRDNAKYTVYLQMNSLKPEDTAVYYCSAVRGKYGYLTTPDWFDYWGQGTQVTVSS	high polyreactivity
QVQLVESAGGLVQAGGSLSLSCAASGRTFVIYAMGWYRKAPGKERELVAGIDSGTSTYADSVKGRFTISRDNAKNTVYLQMNSLKPEDTAVYYCAADFAPDGAGWYIPGDYDSWGQGTQVTVSS	low polyreactivity
QVQLVESGGGLVQAGGILRLTCAASGRIFIYYAMGWYRQAPGKERELVAAISWGGGRTYYADSVKGRFTISRDNAKNTVYLQMNSLKPEDTAVYNCAAGVYTGQHEYDYWGQGTQVTVSS	low polyreactivity
QVHLVESGGGLVQAGGSLRLSCAASGRIFRRNTMGWYRQAPGKERELVAAITSSGGSTYADSVKGRFTISRDNAKNTVYLQMNSLKPEDTAVYYCATYVAYHRGYRTYDHWGQGTQVTVSS	low polyreactivity
QVQLVESGGGLVHAGGSLRLSCAASGYTFQAYAMGWYRQPPGKERELVAAISFSSGSTYYADSVKGRFTISRDNAKNTVYLQMNSLKPEDTAVYDCATDNWSVNGGYNYWGQGTQVTVSS	low polyreactivity
QVQLVESGGGLVQAGGSLRLSCAASGSIFNRYTMGWYRQAPGKERELVAAISKRGGSTYYADSVKGRFTISRDNAKNTVYLQMNSLKPEDPAVYYCAAAGYHSGKGGGYWGQGTQVTVSS	high polyreactivity
QVQLVESGGGLVQAGGSLRLSCAASGSTSWIYAMGWYRQAPGKERELVAAISGRDGSTNYADSVKGRFTISRDNAKNTVYLQMNSLKPEDTAVYYCNATGRRFNRYGGDYWGQGTQVTVSS	high polyreactivity
QVQLVESGGGLVQAGGSLRLSCAASGFTFYYYAMGWYRQAPGKERELVAAITSSGGRTYYADSVKGRFTISRDNAKNTVYLQMNSLKPEDTAVYYCAATGFYHRGEYYYWGQGTQVTVSS	low polyreactivity
QVQLVESGGRLVQAGGSLRLSCAASGSTFSPYTMGCYRQAPGKERELVAGISKSGGRTYYADSVKGRFTISRDNAKNTVYLQMNCLKREVTAVYYCATRSTTDFYCGQGTQVTVSS	high polyreactivity
QVQLVESGGGLVQAGGSLRLSCAASGSTFKAYAMGWYRQAPGKERELVAAITNSDGDTYYADSVKGRFTISRDNAKNTVYLLMNSLKPEDTAVYYFNADDALRQTSDYNYWGQGTQVTVSS	low polyreactivity
QVQLVESGGGLVQAGGSLRLSCAASGNIFSIYAMGWYRQAPGKERELVARITRVGSTYADSVKGRFTISRDNAKNTVYLQMNSLNPEDTAVYYCAADKNTPHASLDDFNDYDYWGQGTQVTVSS	high polyreactivity
QVQLVESGGGLVQAGGSLRLSCAASGIIFYLYAMGWYRQAPGKERELVAAISWRGGSTYYADSVKGRFTISRDNAKNTVYLQMNSLKPEDTAVYYCNKTQPIDLYGYWGQGTQVTVSS	high polyreactivity
QVQLVESGGGLFQAGGSLRISCAASGTFVTYMGWYRQAPGKERELVAAIRNGGSTNYADSVKGRFTISRDNAKNTVYLQMNSLKPDDTAVYYCAARVTYSRGYRGGSRNKYDYWGQGTQVTLSS	low polyreactivity
QVQLVESGGGLVQAGGSLSLSCAASGRTFVRYAMGWYRQAPGKERELVAAISRNAGRTYYADSVKGRFTISRDNAKNTVYLQMNSLKPEDTAVYYCAAPGRNLGTGFYYWGQGTQVTVSS	high polyreactivity
QVQGVESGGGLVQAGGSLRLSCAAAGFTFGYYAMGWYRQAPGTERELVAGISWGGTRTYYADSVKGRFTISRDNAKNTVYLQLNSLKPEDTAVYYCAAESILGYDYWGQGTQVTVSS	high polyreactivity
QVQLVESGGGLVQAGGSLRLSCAASGGTFITNAMGWYRKAPGKERELVAAITSGGRTTYADSVKGRFTISRDNAKNTVDLQMNSLKPVDTAVYYCAADHVYSSTYFLDDYWGQGTQVTVSS	low polyreactivity
QVQLVESGGGLVQAGGSLRLSCDASGSTFYYYAMGWYRQAPGKERELVDSISFSGGSTYYADSVKGRFTISRDNAKNTVYLQMNSLKPEDTAVYYCGYYYWGQGTQVTVSS	low polyreactivity
QVQLVESGGGLVQAGGSLRLSCAASGSTFVGYAMVWYRQAPGKERELVAAISRSGGSTYYADSVKGRFTISRDNAKNTVYLQMNSLKPEDTAVYYCAAGARAFDDDFWGQGTQVNVSS	low polyreactivity
QVQLVESGGGLVQAGGSLRLTCAASGRIFYHYAMGWYRQATGKERELVATISGAGSTHYADSVKGRFTISRDNAKNTVYLQMNSLKAEDTAVYYCNADTYLIRYWSMLEYWGQGTQVTVSS	low polyreactivity
QVQLVESGGGLVQAGGSLRLSCAASGRIYSFYAMGWYRQAPGKERELVAAITYTDGSTYADSVKGRFTISRDNAKNTVYLQLNSLKPEDTSVYYFATRYRWTPYDFWGQGTQVTVSS	low polyreactivity
